Test results taken from the supplement of paper PMC9112550, “Optimization of the antimicrobial peptide Bac7 by deep mutational scanning” (BMC Biology, 2022).

tested on: Escherichia coli TOP10; assay: shrunken log2 fold change of peptide-encoding DNA abundance (4.5 h post-induction vs induction); higher = less antimicrobial activity (less host growth inhibition); details: time post-induction: 4.5 h; library: site-saturation at positions 5, 18, 19, 20
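Further: peptides expressed intracellularly from a pBAD plasmid library in pooled LB shake-flask culture, induced with 0.3% L-arabinose, DNA abundance read by NGS, three biological replicates, DESeq2 with apeglm shrinkage.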

Row | Sequence | shrunken log2 fold change
1 | RRIRARPPRLPRPRPRPERKPRP | 1.16
2 | RRIRARPPRLPRPRPRPESYPRP | 1.13
3 | RRIRARPPRLPRPRPRPETDPRP | 0.764
4 | RRIRARPPRLPRPRPRPETTPRP | 1.61
5 | RRIRARPPRLPRPRPRPEVAPRP | 0.214
6 | RRIRARPPRLPRPRPRPEWLPRP | 1.25
7 | RRIRARPPRLPRPRPRPEWRPRP | 0.37
8 | RRIRARPPRLPRPRPRPEWYPRP | 0.137
9 | RRIRARPPRLPRPRPRPEYSPRP | 0.0132
10 | RRIRARPPRLPRPRPRPFAVPRP | 0.129
11 | RRIRARPPRLPRPRPRPFCVPRP | 0.19
12 | RRIRARPPRLPRPRPRPFDCPRP | -0.0326
13 | RRIRARPPRLPRPRPRPFDPPRP | 0.0109
14 | RRIRARPPRLPRPRPRPFDQPRP | 0.249
15 | RRIRARPPRLPRPRPRPFDRPRP | 0.0972
16 | RRIRARPPRLPRPRPRPFFSPRP | -0.0124
17 | RRIRARPPRLPRPRPRPFFWPRP | 0.321
18 | RRIRARPPRLPRPRPRPFIKPRP | -0.529
19 | RRIRARPPRLPRPRPRPFLGPRP | 0.0605
20 | RRIRARPPRLPRPRPRPFLLPRP | -0.223
21 | RRIRARPPRLPRPRPRPFMDPRP | 0.00846
22 | RRIRARPPRLPRPRPRPFMNPRP | -0.0629

Row | Sequence | shrunken log2 fold change
23 | RRIRARPPRLPRPRPRPFNDPRP | -0.147
24 | RRIRARPPRLPRPRPRPFNVPRP | 0.0338
25 | RRIRARPPRLPRPRPRPFNYPRP | -0.0393
26 | RRIRARPPRLPRPRPRPFPFPRP | -0.112
27 | RRIRARPPRLPRPRPRPFQHPRP | -0.162
28 | RRIRARPPRLPRPRPRPFQLPRP | -0.94
29 | RRIRARPPRLPRPRPRPFRRPRP | -0.0278
30 | RRIRARPPRLPRPRPRPFTRPRP | 0.105
31 | RRIRARPPRLPRPRPRPFVCPRP | -0.476
32 | RRIRARPPRLPRPRPRPFWTPRP | 0.29
33 | RRIRARPPRLPRPRPRPFYDPRP | 0.314
34 | RRIRARPPRLPRPRPRPFYFPRP | 0.00316
35 | RRIRARPPRLPRPRPRPGALPRP | 1.22
36 | RRIRARPPRLPRPRPRPGCEPRP | 1.1
37 | RRIRARPPRLPRPRPRPGCKPRP | 0.321
38 | RRIRARPPRLPRPRPRPGEAPRP | 0.942
39 | RRIRARPPRLPRPRPRPGEVPRP | 0.935
40 | RRIRARPPRLPRPRPRPGFGPRP | 0.667
41 | RRIRARPPRLPRPRPRPGFPPRP | 0.213
42 | RRIRARPPRLPRPRPRPGHIPRP | 0.0195
43 | RRIRARPPRLPRPRPRPGHSPRP | -0.0933
44 | RRIRARPPRLPRPRPRPGIGPRP | 0.524

Row | Sequence | shrunken log2 fold change
45 | RRIRARPPRLPRPRPRPGIYPRP | -0.225
46 | RRIRARPPRLPRPRPRPGKSPRP | 0.294
47 | RRIRARPPRLPRPRPRPGKWPRP | 0.19
48 | RRIRARPPRLPRPRPRPGLWPRP | 1.04
49 | RRIRARPPRLPRPRPRPGMTPRP | 0.261
50 | RRIRARPPRLPRPRPRPGNTPRP | -0.0858
51 | RRIRARPPRLPRPRPRPGPFPRP | 0.231
52 | RRIRARPPRLPRPRPRPGQDPRP | 0.15
53 | RRIRARPPRLPRPRPRPGRMPRP | 0.237
54 | RRIRARPPRLPRPRPRPGSWPRP | 0.759
55 | RRIRARPPRLPRPRPRPGTDPRP | 0.565
56 | RRIRARPPRLPRPRPRPGTGPRP | 0.158
57 | RRIRARPPRLPRPRPRPGYCPRP | -0.012
58 | RRIRARPPRLPRPRPRPGYHPRP | -0.14
59 | RRIRARPPRLPRPRPRPGYLPRP | 0.0801
60 | RRIRARPPRLPRPRPRPGYMPRP | -0.21
61 | RRIRARPPRLPRPRPRPHCDPRP | 0.214
62 | RRIRARPPRLPRPRPRPHCIPRP | 0.102
63 | RRIRARPPRLPRPRPRPHCQPRP | 0.0405
64 | RRIRARPPRLPRPRPRPHEEPRP | 0.793
65 | RRIRARPPRLPRPRPRPHFAPRP | 0.733
66 | RRIRARPPRLPRPRPRPHGIPRP | 0.0225

Row | Sequence | shrunken log2 fold change
67 | RRIRARPPRLPRPRPRPHHVPRP | -0.0499
68 | RRIRARPPRLPRPRPRPHIMPRP | -0.277
69 | RRIRARPPRLPRPRPRPHKFPRP | -0.0967
70 | RRIRARPPRLPRPRPRPHQFPRP | -0.024
71 | RRIRARPPRLPRPRPRPHQNPRP | 0.409
72 | RRIRARPPRLPRPRPRPHQRPRP | 0.0964
73 | RRIRARPPRLPRPRPRPHQWPRP | 0.137
74 | RRIRARPPRLPRPRPRPHRIPRP | -0.145
75 | RRIRARPPRLPRPRPRPHRLPRP | -0.0138
76 | RRIRARPPRLPRPRPRPHSKPRP | -0.154
77 | RRIRARPPRLPRPRPRPHSMPRP | 0.104
78 | RRIRARPPRLPRPRPRPHTAPRP | 0.172
79 | RRIRARPPRLPRPRPRPHTMPRP | -0.0952
80 | RRIRARPPRLPRPRPRPHTVPRP | -0.0287
81 | RRIRARPPRLPRPRPRPHVLPRP | -0.0367
82 | RRIRARPPRLPRPRPRPHWDPRP | 0.116
83 | RRIRARPPRLPRPRPRPHWQPRP | 0.124
84 | RRIRARPPRLPRPRPRPICMPRP | 0.055
85 | RRIRARPPRLPRPRPRPIDSPRP | -0.0515
86 | RRIRARPPRLPRPRPRPIETPRP | -0.18
87 | RRIRARPPRLPRPRPRPIEWPRP | 0.638
88 | RRIRARPPRLPRPRPRPIFHPRP | 0.183

Row | Sequence | shrunken log2 fold change
89 | RRIRARPPRLPRPRPRPIFNPRP | 0.0119
90 | RRIRARPPRLPRPRPRPIFPPRP | 0.32
91 | RRIRARPPRLPRPRPRPIGHPRP | 0.0734
92 | RRIRARPPRLPRPRPRPIHVPRP | -0.143
93 | RRIRARPPRLPRPRPRPIHYPRP | -0.241
94 | RRIRARPPRLPRPRPRPIICPRP | 0.106
95 | RRIRARPPRLPRPRPRPIIPPRP | -0.256
96 | RRIRARPPRLPRPRPRPIKHPRP | -0.0409
97 | RRIRARPPRLPRPRPRPIKIPRP | -0.095
98 | RRIRARPPRLPRPRPRPILWPRP | 0.254
99 | RRIRARPPRLPRPRPRPIMSPRP | 0.0485
100 | RRIRARPPRLPRPRPRPIMWPRP | 0.217
101 | RRIRARPPRLPRPRPRPINMPRP | -0.346
102 | RRIRARPPRLPRPRPRPINTPRP | -0.631
103 | RRIRARPPRLPRPRPRPIQRPRP | 0.112
104 | RRIRARPPRLPRPRPRPIRDPRP | 0.114
105 | RRIRARPPRLPRPRPRPITAPRP | 0.232
106 | RRIRARPPRLPRPRPRPIWDPRP | 0.264
107 | RRIRARPPRLPRPRPRPIWTPRP | -0.144
108 | RRIRARPPRLPRPRPRPIWVPRP | 0.226
109 | RRIRARPPRLPRPRPRPIYTPRP | -0.387
